In one data set the test system is mouse brain. In words: In vivo play-off screen with 4 CX4CYX peptides. The settings on record: compared to CAGALCY.
For the next data set, the system named is VEGFko GBM. Briefly: Peptide-phage homing in glioma-bearing mice. The settings on record: peptide-phage i.v., 1 h. Type of data set: in vivo, mouse. The text has this: (§1) Animal experimentation procedures were approved by the Estonian Ministry of Agriculture, Committee of Animal Experimentation, Project #48 and #159. Balb/c mice and Athymic nude mice (HD) were housed in a pathogen-free environment at the Animal Facility of the Institute of Biomedicine and Translational Medicine, University of Tartu (Tartu, Estonia). For induction of orthotopic GBM xenografts in nude mice, 7×10^5 (WT-GBM, VEGFko GBM) cells were implanted intracranially in the right striatum of the brain (ccordinates: 2 mm laterally and 2 mm posteriorly from bregma and at 2.5 mm depth). Intracranial tumors developed for 6-7 days (WT-GBM) and 12-14 days (VEGFko GBM) before performing experiments.
(§2) Homing of CVGTNCY (SEQ ID NO:2) was analyzed in angiogenic WT-GBM and infiltrative VEGFko GBM models. First, CVGTNCY (SEQ ID NO:2) peptide-phage homing was evaluated based on titer after systemic injection into the glioma-bearing mice and perfusion with PBS.

The subject of a further data set is WT-GBM. Briefly: Peptide-phage homing in glioma-bearing mice. Type of data set: in vivo, mouse. The note with it: peptide-phage i.v., 1 h.
Description: as §1, §2

The test system of a further data set is Neuro2A cells. Briefly: In vitro AgNP binding and internalization. The settings on record: pre-incubated with 100 μM free peptide, 1 h, 37 °C. The data set is classed as cell-based, mouse. As for the experimental part:
To assess the binding and uptake of silver nanoparticles functionalized with Cerepep, Neuro2A were cultured in 24-well plates on polylysine coated glass coverslips until 80-90% confluency. Biotinylated Cerepep peptide or biotin as a non-targeted control and CF555 dye were conjugated to neutravidin-AgNPs prepared as described previously (Tobi et al., 2021). Some samples were pre-incubated with 100 μM Cerepep peptide (Ac-SERVISRAKLAAAL-OH (SEQ ID NO:9), where Ac-acetylation) at 37 °C for 1 h to assess whether the binding and internalization of particles is peptide-dependent. 10 μl (OD=100) of CP-AgNPs or control biotin-AgNPs were added to cells in 500 μl of media and incubated at 37 °C for 1h. In some samples, the cell surface-bound AgNPs were removed with a freshly prepared etching solution containing 10 mM of Na2S2O3 and K3Fe(CN)6 in PBS, which was applied for 3 min. All the samples were washed with DPBS to remove unbound AgNPs. The cells were fixed in methanol, stained with DAPI and analyzed with confocal microscopy as described above.
Next, the interaction of cultured Neuro2A cells with neutravidin-AgNPs labeled with NHS-CF555 dye and functionalized with biotinylated SRRVISRAKLAAAL (SEQ ID NO: 9) (CP-AgNPs) was tested.

Experimental findings from US20260347399A1, “BRAIN PENETRATING PEPTIDES AND METHODS OF USE” (priority 2022, published 2026) are described below.

Ends that are not written are not given here.

For the substance CVGTNCY, the “representation in the brain” value in the data set with mouse brain is “highest representation in the brain”. Further, in the data set with VEGFko GBM, the “accumulation in VEGFko GBM compared to normal brain parenchyma” value was 2 times. In addition, the “ratio of CVGTNCY over G7, normal brain vs GBM” value with WT-GBM (WT-GBM and VEGFko GBM) is on record as “higher in the normal brain parenchyma than in GBMs”. The “accumulation in WT-GBM compared to normal brain parenchyma” value in the data set on WT-GBM turned out to be 6 times.
For “SRRVISRAKLAAAL [Cerepep, SRRVISRAKLAAAL]”, the “effect of free peptide on binding and internalization of CP-AgNPs” value in the data set with Neuro2A cells is given as “abolished”.
